Experimental data as given in PMC11391413.
Values belong to the binder of their own block, whether it stands above or below them.

Experiments:
full-length GRB2 (human) = full-length GRB2 (human) (UniProt P62993); assay: NMR titration; 15N-labelled full-length GRB2 (about 200-270 uM) titrated with SOS1 PRM peptides (up to 1:12 S4, 1:36 S5 and S9, 1:24 S10), 2D 1H-15N HSQC, 25 °C, 20 mM sodium phosphate, 0.05% NaN3; global fit of residues with CSP over 0.03 ppm to an independent two-site model (values in parentheses: single-binding site model)
[1] = molecular target: SOS1 S5 (Homo sapiens), Q07889; assay: NMR

Binder: IAGPPVPPRQST [SOS1 S9 PRM (…)]
KD1 (NSH3 site, independent two-site model) (full-length GRB2 (human)): 28.4 µM
KD2 (CSH3 site, independent two-site model) (full-length GRB2 (human)): 516 µM
KD for NSH3, single-binding site model (full-length GRB2 (human)): 35 µM

Binder: DSPPAIPPRQPT [SOS1 S5 PRM (…)]
KD1 (NSH3 site, independent two-site model) (full-length GRB2 (human)): 40.9 µM
KD2 (CSH3 site, independent two-site model) (full-length GRB2 (human)): 901 µM
KD for NSH3, single-binding site model (full-length GRB2 (human)): 44.9 µM

Binder: PKLPPKTYKREH [SOS1 S10 PRM (…)]
KD1 (NSH3 site, independent two-site model) (full-length GRB2 (human)): 483 µM
KD2 (CSH3 site, independent two-site model) (full-length GRB2 (human)): 579 µM

Second part, the binder after the results:

Kd [1]: 901 µM
B1: GRB2 CSH3, P62993 (protein)
chain: QQPTYVQALFDFDPQEDGELGFRRGDFIHVMDNSDPNWWKGACHGQTGMFPRNYVTPVNR

Kd [1]: 40.9 µM
B2: GRB2 NSH3, P62993 (protein)
chain: MEAIAKYDFKATADDELSFKRGDILKVLNEECDQNWYKAELNGKDGFIPKNYIEMKPH
